Data published in patent US20180258175A1 (ABLEXIS, published 2018).
Substitutions are numbered along the chain they refer to. One block for each binder: values may come before it.

Legend:
[1] = molecular target: T1, human CD115 extracellular domain (Sino Biological 10161-H08H) (human, UniProt P07333 20-517); assay: competition ELISA, competitor TMR 44B;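 also: binding of antibodies from single-clone hybridoma supernatants to huCD115 measured with the competitor antibody present, a drop in signal meaning both share an epitope bin; low signal means same epitope bin as the mouse competitor antibody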
T1 construct: extracellular domain; bought recombinant protein; also called huCD115; hu-CD115

[2] = molecular target: T1, human CD115 extracellular domain (Sino …); assay: competition ELISA, competitor TMR 35A;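 also: clonal hybridoma supernatant antibodies added to wells after the competitor mouse antibody, lost binding signal puts an antibody in that competitor's epitope bin; low signal means same epitope bin as the mouse competitor antibody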
[3] = molecular target: T1, human CD115 extracellular domain (Sino …); assay: competition ELISA, competitor TMR 20A;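 also: epitope binning by ELISA, anti-huCD115 hybridoma supernatant antibodies tested for binding to huCD115 with the competitor antibody present, loss of binding placing them in the competitor's bin; low signal means same epitope bin as the mouse competitor antibody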
[4] = molecular target: T1, human CD115 extracellular domain (Sino …); assay: competition ELISA, competitor TMR 100A;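 also: clonal anti-huCD115 hybridoma supernatants tested for binding with the competitor antibody present, clones failing to bind are assigned to the competitor's epitope bin; low signal means same epitope bin as the mouse competitor antibody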
[5] = molecular target: T1, human CD115 extracellular domain (Sino …); assay: competition ELISA, competitor TMR 24A
[6] = molecular target: T1, human CD115 extracellular domain (Sino …); assay: competition ELISA, competitor TMR 95A
[7] = molecular target: T1, human CD115 extracellular domain (Sino …); assay: SPR ProteOn, supernatant mAb captured on anti-mouse IgG, Hu CD115 analyte

B5: 549 (Table 4, bin 1D block) (antibody, V domains shown)
VH: QVQFVESGGGVVQPGRSLRLSCAASGFTLSSYGMHWVRQAPGKGLEWVAVIWYDGSNEYYADSVKGRFTISRDNSKNTLYLQMNSLRAEDTAVYYCARDRAWGSGDWGQGTLVTVSS
VL: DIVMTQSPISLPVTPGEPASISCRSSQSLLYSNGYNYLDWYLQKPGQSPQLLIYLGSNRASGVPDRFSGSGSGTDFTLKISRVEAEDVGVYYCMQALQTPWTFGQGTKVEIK
notes: not tied
signal vs NO COMP=100 [1]: 2% | signal vs NO COMP=100 [2]: 89% | signal vs NO COMP=100 [3]: 59% | signal vs NO COMP=100 [4]: 100% | signal vs NO COMP=100 [5]: 111% | signal vs NO COMP=100 [6]: 1%

B7: 429 (Table 4, bin 1C block) (antibody, V domains shown)
VH: QVQLEQSGAEVKRPGASVKVSCKASGYTFTGYYMHWVRQAPGQGLEWMGWINPNRGDTNYAQKFQGRVTMTRDTSISTAYMELSRLRSDDTAVYYCARDLEGGGPFDYWGQGTLVTVSS
VL: DIVMTQTPLSLPVTPGEPASISCRSSQSLLDSDDGNTYLDWYLQKPGQSPQLLIYTLSYRASGVPDRFSGSGSGTDFTLKISRVEAEDVGVYYCMQRIEFPSTFGQGTRLEIK
notes: not tied
signal vs NO COMP=100 [1]: 45% | signal vs NO COMP=100 [2]: 112% | signal vs NO COMP=100 [3]: 84% | signal vs NO COMP=100 [4]: 107% | signal vs NO COMP=100 [5]: 75% | signal vs NO COMP=100 [6]: 38%

B8: CCK-516A (antibody, V domains shown)
VH: not shown
VL: B7 VL with S102L, Q106G, R109K, L110V
notes: AlivaMab chimeric IgG, human kappa LC
signal vs NO COMP=100 [1]: 10% | signal vs NO COMP=100 [2]: 82% | signal vs NO COMP=100 [3]: 70% | signal vs NO COMP=100 [4]: 87% | signal vs NO COMP=100 [5]: 39% | signal vs NO COMP=100 [6]: 20%

B10: CCK-455A (antibody, V domains shown)
VH: EVQLVESGGGLVQPGGSLRLSCAASGFTFSSYWMHWVRQAPGKGLVWVSRINSDGSSTSYADSVKGRFTISRDNAKNTLYLQMNSLRAEDTAVYYCARDGGTTGAFDIWGQGTMVTVSS
VL: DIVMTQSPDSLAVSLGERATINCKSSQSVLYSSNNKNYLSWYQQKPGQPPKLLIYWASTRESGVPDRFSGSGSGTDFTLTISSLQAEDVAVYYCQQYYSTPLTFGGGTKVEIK
notes: as for B8
signal vs NO COMP=100 [1]: 28% | signal vs NO COMP=100 [2]: 54% | signal vs NO COMP=100 [3]: 58% | signal vs NO COMP=100 [4]: 79% | signal vs NO COMP=100 [5]: -1% | signal vs NO COMP=100 [6]: 0%

B11: CCK-424A (antibody, V domains shown)
VH: QVQLQESGPGLVKPSETLSLTCTVSGGSISSYYWSWIRQPPGKVLEWIGYFSYNGNTNYNPSLKSRVTISVDTSKNQFSLKLSSVTAADTAVYYCTRGMDVWGQGTTVTVSS
VL: DIQMTQSPSTLSASVGDRVTITCRASQSISDWLAWYLQKPGKAPKLLIYKASSLESGVPSRFSGSGSGTAFTLTISSLQPDDFATYYCQQYNSHWTFGQGTKVEIK
notes: as for B8
signal vs NO COMP=100 [1]: 53% | signal vs NO COMP=100 [2]: 102% | signal vs NO COMP=100 [3]: 98% | signal vs NO COMP=100 [4]: 98% | signal vs NO COMP=100 [5]: 29% | signal vs NO COMP=100 [6]: 16%

B12: CCK-421A (antibody, V domains shown)
VH: QVQLQESGPGLVKPSETLSLTCTVTGGSISSYYWSWIRQPAGKGLEWIGRIYTSGSTNYNPSLKSRVTMSVDTSKNHFSLKLSSVTAADTAVYYCAREILVVVAATRTGGVFDIWGQGTMVTVSS
VL: B11 VL with D31S, L37Q, Q38R, S53T, A70E, Y91F, H94Y
notes: as for B8
signal vs NO COMP=100 [1]: 55% | signal vs NO COMP=100 [2]: 100% | signal vs NO COMP=100 [3]: 104% | signal vs NO COMP=100 [4]: 99% | signal vs NO COMP=100 [5]: 18% | signal vs NO COMP=100 [6]: 9%

B13: CCK-418A (antibody, V domains shown)
VH: QVQLQESGPGLVKPSETLSLTCTVSGGSISSYYWSWIRQPAGKGLEWIGRIYTSGTTNFNPSLKSRVTMSVDTSKNQFSLKLSSVTAADTAVYYCATLSGTNWGSPFDYWGQGTLVTVSS
VL: not shown
notes: as for B8
signal vs NO COMP=100 [1]: 3% | signal vs NO COMP=100 [2]: 82% | signal vs NO COMP=100 [3]: 89% | signal vs NO COMP=100 [4]: 106% | Kd [7]: 0.158 nM | koff [7]: 2.11e-05 s⁻¹ | kon [7]: 133000 M⁻¹ s⁻¹ | signal vs NO COMP=100 [5]: 35% | signal vs NO COMP=100 [6]: 10%

B16: CCK-407A (antibody, V domains shown)
VH: QVQLQESGPGLVKPSETLSLTCTVSGGSISSYYWSWIRQPAGKGLEWIGHIFSSGSTNYNPSLKSRVTMSVDTSKSQFSLKLSSVTAADTAVYLCARGGVTWFDPWGQGTLVTVSS
VL: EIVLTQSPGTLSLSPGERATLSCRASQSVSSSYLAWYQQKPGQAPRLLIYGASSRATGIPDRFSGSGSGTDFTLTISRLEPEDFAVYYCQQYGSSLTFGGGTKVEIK
notes: as for B8
Kd [7]: 0.95 nM | koff [7]: 6.54e-05 s⁻¹ | kon [7]: 69000 M⁻¹ s⁻¹

B17: 487 (Table 4, bin 3 block) (antibody, V domains shown)
VH: B16 VH
VL: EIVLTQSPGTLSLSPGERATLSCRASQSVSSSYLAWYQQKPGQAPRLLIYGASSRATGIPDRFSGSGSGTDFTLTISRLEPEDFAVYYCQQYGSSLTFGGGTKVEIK
notes: not tied
signal vs NO COMP=100 [1]: 94% | signal vs NO COMP=100 [2]: 6% | signal vs NO COMP=100 [3]: 97% | signal vs NO COMP=100 [4]: 103% | signal vs NO COMP=100 [5]: 86% | signal vs NO COMP=100 [6]: 84%

Next, values leading:

signal vs NO COMP=100 [1]: 41% | signal vs NO COMP=100 [2]: 110% | signal vs NO COMP=100 [3]: 110% | signal vs NO COMP=100 [4]: 110% | signal vs NO COMP=100 [5]: 27% | signal vs NO COMP=100 [6]: 15%
B1: CCK-461A (antibody, V domains shown)
VH: QVQLQESGPGLVKPSETLSLTCTVSGGSISSYYWTWIRQPPGKGLEWIGYISYSGGTNYNPSLKSRVTISVDTSKNQFSLKLSSVTAADTAVYYCARELGNYWGQGTLVTVSS
VL: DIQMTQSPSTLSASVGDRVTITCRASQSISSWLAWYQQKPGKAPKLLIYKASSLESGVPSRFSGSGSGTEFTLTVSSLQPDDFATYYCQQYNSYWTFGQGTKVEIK
notes: as for B8

signal vs NO COMP=100 [1]: 4% | signal vs NO COMP=100 [2]: 75% | signal vs NO COMP=100 [3]: 84% | signal vs NO COMP=100 [4]: 103% | signal vs NO COMP=100 [5]: 53% | signal vs NO COMP=100 [6]: 42%
B2: CCK-514A (antibody, V domains shown)
VH: EVQLVESGGGLVKPGGSLRLSCAASGFTFSSYSMNWVRQAPGKGLEWVSSISSSSSYIYYADSVKGRFTISRDNAKNSLYLQMNSLRAEDTAVYYCARGGSYPYNWFDPWGQGTLVTVSS
VL: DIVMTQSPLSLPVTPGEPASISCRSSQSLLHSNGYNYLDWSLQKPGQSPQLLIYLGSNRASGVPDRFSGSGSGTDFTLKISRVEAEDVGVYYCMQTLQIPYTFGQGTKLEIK
notes: as for B8

signal vs NO COMP=100 [1]: 24% | signal vs NO COMP=100 [2]: 104% | signal vs NO COMP=100 [3]: 53% | signal vs NO COMP=100 [4]: 95% | signal vs NO COMP=100 [5]: 85% | signal vs NO COMP=100 [6]: 61%
B3: CCK-468A (antibody, V domains shown)
VH: EVQLVESGGGLVQPGRSLRLSCTASGFTFGDYAMTWFRQAPGKGLEWVGFIRSKAYGGTTEYAASVKGRFTISRDDSKSIAYLQMNSLKTEDTAVYYCTREGSFGALDIWGQGTMVTVSS
VL: not shown
notes: as for B8

signal vs NO COMP=100 [1]: 17% | signal vs NO COMP=100 [2]: 66% | signal vs NO COMP=100 [3]: 22% | signal vs NO COMP=100 [4]: 79% | signal vs NO COMP=100 [5]: 2% | signal vs NO COMP=100 [6]: 6%
B4: CCK-458A (antibody, V domains shown)
VH: QITLKESGPPLVKPTQTLTLTCTFSGFSLSTSGVGVGWIRQPPGKALEWLALIYWNDDKRYSPSLKSRLTITKDTSKNQVVLTMTNMDPVDTATYYCAHSPRYSGYFDYWGQGTLVTVSS
VL: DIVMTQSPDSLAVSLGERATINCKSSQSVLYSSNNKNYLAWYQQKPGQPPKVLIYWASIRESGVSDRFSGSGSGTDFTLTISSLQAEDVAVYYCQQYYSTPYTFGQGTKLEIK
notes: as for B8

signal vs NO COMP=100 [1]: 12% | signal vs NO COMP=100 [2]: 110% | signal vs NO COMP=100 [3]: 6% | signal vs NO COMP=100 [4]: 118% | Kd [7]: 0.86 nM | koff [7]: 7.71e-05 s⁻¹ | kon [7]: 90000 M⁻¹ s⁻¹ | signal vs NO COMP=100 [5]: 110% | signal vs NO COMP=100 [6]: 36%
B6: CCK-519A (antibody, V domains shown)
VH: not shown
VL: B7 VL with S102I
notes: as for B8

Kd [7]: 0.317 nM | koff [7]: 3.92e-05 s⁻¹ | kon [7]: 124000 M⁻¹ s⁻¹
B9: CCK-533A (antibody, V domains shown)
VH: QVQLVQSGAEVKKPGASVKVSCKASGYTFTGYYMHWVRQAPGQGLEWMGRINPNSGGTYYAQKFQGRVTMTRDTSISTAYVELSRLRSDDTAVYYCARKNPWGHFDYWGQGTLVTVSS
VL: B7 VL with S102Y, R109K
notes: as for B8

signal vs NO COMP=100 [1]: 56% | signal vs NO COMP=100 [2]: 88% | signal vs NO COMP=100 [3]: 80% | signal vs NO COMP=100 [4]: 100% | signal vs NO COMP=100 [5]: 13% | signal vs NO COMP=100 [6]: 11%
B14: CCK-525A (antibody, V domains shown)
VH: QVQLVESGGGVVQPGRSLRLSCAASGFTFSSYGMHWVRQAPGKGLEWVAVIWYDGSIKYYADSVKGRFTISRDNSKNTLYLQMNSLRAEDTAVYYCARATYYYDSSGYYSNWFDPWGQGTLVTVSS
VL: DIQMTQSPSSVSASVGDRVTITCRASQGISSWLAWYQQKPGKAPKLLIYAASSLQSGVPSRFSGSGSGTDFTLTISSLQPEDFATYYCQQANTFPFTVGPGTKVDIK
notes: as for B8

Kd [7]: 2.7 nM | koff [7]: 8.5e-05 s⁻¹ | kon [7]: 32000 M⁻¹ s⁻¹
B15: CCK-539A (antibody, V domains shown)
VH: QVQLVESGGGVVQPGRSLRLSCAASGFTFSTFAMHWVRQAPGKGLEWVAVISYDGSNKYYVDSVKGRFTISRDNSKNTLYLQMNSLRAEDTAMYYCARDGTGDALDIWGQGTMVTVSS
VL: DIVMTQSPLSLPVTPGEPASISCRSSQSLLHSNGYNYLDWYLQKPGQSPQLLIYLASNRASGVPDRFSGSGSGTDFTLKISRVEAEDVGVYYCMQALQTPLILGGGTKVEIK
notes: as for B8

signal vs NO COMP=100 [1]: 0% | signal vs NO COMP=100 [2]: 85% | signal vs NO COMP=100 [3]: 87% | signal vs NO COMP=100 [4]: 96% | signal vs NO COMP=100 [5]: 39% | signal vs NO COMP=100 [6]: 57%
B18: CCK-464A (antibody, V domains shown)
VH: EVQLVESGGGLVKPGGSLRLSCAASGFTFSSYNMNWVRQAPGKGLEWVSSISSSSTYIYYADSLKGRFTISRDNAMNSLYLQMSSLRAEDTAVYYCARDSGTYPYYYFGMDVWGQGTTVTVSS
VL: DIQLTQSPSFLSASVGDRVTITCRASQGISSYLAWYQQKPGKAPKLLIYAASTLQSGVPSRFSGSGSGTEFTLTISSLQPEDFATYYCQQLNTYPRTFGQGTKVEIK
notes: as for B8
